Laboratory results reported in article PMC10756753, “Redox-mediated activation of ATG3 promotes ATG8 lipidation and autophagy progression in Chlamydomonas reinhardtii” (Plant Physiology, 2023).

Legend:
[1] = molecular target: Chlamydomonas reinhardtii ATG3, wild type (Chlamydomonas reinhardtii); experiment: non-reducing SDS-PAGE; purified ATG3 (about 2.5-3 ug) in 50 mM Tris-HCl pH 7.5, 25 °C, untreated or treated with DTTred, GSH, DTTox, H2O2 or Cu2+; stopped with βME-free loading buffer, 5 min at 65 °C; 12% or 15% gels, Coomassie; monomer against disulfide-linked dimer
[2] = molecular target: the molecule itself; experiment: as above

Chlamydomonas reinhardtii ATG3, wild type (enzyme)
stoichiometry N [1]: 2

B1: Saccharomyces cerevisiae ATG3, wild type (enzyme, UniProt P40344 1-310, looked up)
chain: MIRSTLSSWREYLTPITHKSTFLTTGQITPEEFVQAGDYLCHMFPTWKWNEESSDISYRDFLPKNKQFLIIRKVPCDKRAEQCVEVEGPDVIMKGFAEDGDEDDVLEYIGSETEHVQSTPAGGTKDSSIDDIDELIQDMEIKEEDENDDTEEFNAKGGLAKDMAQERYYDLYIAYSTSYRVPKMYIVGFNSNGSPLSPEQMFEDISADYRTKTATIEKLPFYKNSVLSVSIHPCKHANVMKILLDKVRVVRQRRRKELQEEQELDGVGDWEDLQDDIDDSLRVDQYLIVFLKFITSVTPSIQHDYTMEGW
notes: ATG3 (E2-like enzyme of the ATG8 conjugation system), Saccharomyces cerevisiae; catalytic Cys234; also called ScATG3; ScATG3^WT
stoichiometry N [2]: 2
